Assay results as given in patent US20230365714A1 (published 2023).

Assays:
[1] = molecular target: T1, ROR221 shuffle variant (Ig-like domain and CRD of ROR2, kringle domain of ROR1) (human (ROR1/ROR2 chimera), UniProt Q01973 30-937); assay: cell imaging (CellInsight) on CHO cells expressing the shuffle construct
T1 chain: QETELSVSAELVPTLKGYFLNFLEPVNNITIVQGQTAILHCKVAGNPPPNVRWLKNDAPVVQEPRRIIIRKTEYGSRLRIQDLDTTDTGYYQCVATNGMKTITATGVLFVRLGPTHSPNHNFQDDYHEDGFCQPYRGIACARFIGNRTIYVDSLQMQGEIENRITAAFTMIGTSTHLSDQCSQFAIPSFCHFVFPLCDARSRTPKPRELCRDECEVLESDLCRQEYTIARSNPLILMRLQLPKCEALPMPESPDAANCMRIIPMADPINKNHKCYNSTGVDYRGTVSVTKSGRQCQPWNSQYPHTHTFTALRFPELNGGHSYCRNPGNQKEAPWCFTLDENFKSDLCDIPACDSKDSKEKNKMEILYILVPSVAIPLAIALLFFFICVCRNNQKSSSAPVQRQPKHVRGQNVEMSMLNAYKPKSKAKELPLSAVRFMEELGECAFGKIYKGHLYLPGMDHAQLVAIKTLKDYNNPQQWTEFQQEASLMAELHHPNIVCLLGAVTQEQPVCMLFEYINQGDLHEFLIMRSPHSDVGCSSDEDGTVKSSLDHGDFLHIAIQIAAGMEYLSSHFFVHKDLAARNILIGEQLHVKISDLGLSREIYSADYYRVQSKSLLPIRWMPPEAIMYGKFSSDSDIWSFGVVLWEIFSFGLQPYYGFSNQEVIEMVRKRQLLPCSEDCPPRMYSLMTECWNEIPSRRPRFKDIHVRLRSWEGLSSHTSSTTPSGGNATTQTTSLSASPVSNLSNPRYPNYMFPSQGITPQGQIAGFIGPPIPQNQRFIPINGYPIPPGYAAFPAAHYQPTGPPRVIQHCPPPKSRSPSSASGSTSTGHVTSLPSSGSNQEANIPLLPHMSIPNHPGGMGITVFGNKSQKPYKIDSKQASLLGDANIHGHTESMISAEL
Experimental: Binding was determined […] using a cell imaging screening system (Celllnsight, Thermo Fisher) as per manufacturer's recommendations. In short, CHO cells expressing shuffle constructs ROR112, ROR121, ROR122, ROR211 or ROR221 (3,000 cells/well in 384-well plates) were incubated with antibody or control samples for 18 h at 37° C./5% CO₂, washed and incubated with an Alexa488-labeled detection antibody for 4 h. Hoechst dye was added and fluorescence images were collected, measuring total spot intensity (RFU).

[2] = molecular target: T2, his-tagged ROR2 extracellular domain (ROR2-ECD, G&P Biosciences, cat. no. FCL0192) (human, UniProt Q01974 34-403); assay: BLI (Octet HTX), antibody on anti-human IgG Fc sensor, ROR2-ECD as analyte
T2 construct: Bought protein; also called human ROR2-ECD; recombinant human ROR2-ECD; not shown: his tag
Experimental: Experiments were carried out while shaking at 1,000 RPM at 30° C.
Anti-Human IgG Fc Capture (AHC) biosensors (ForteBio, cat. no. 18-5060) were pre-conditioned by exposure to 10 mM glycine (Riedel-de Haen, cat. no. 15527) buffer pH 1.7 for 5 s, followed by neutralization in Sample Diluent (ForteBio, cat. no. 18-1048) for 5 s; both steps were repeated 5 times. Next, AHC sensors were loaded with the antibody (2.5 μg/mL in Sample diluent) for 600 s. After a baseline measurement in Sample Diluent (300 s), the association (1,000 s) and dissociation (1,000 s) of a commercially available his-tagged ROR2 extracellular domain (ROR2-ECD, G&P Biosciences, cat. no. FCL0192) was determined using a concentration range of 6.25-400 nM with two-fold dilution steps in Sample Diluent. The calculated molecular mass of ROR2 ECD based on their amino acid sequences of 42.7 kDa was used for calculations. For each antibody a reference sensor was used, which was incubated with Sample Diluent instead of antigen. AHC sensors were regenerated by exposure to 10 mM glycine buffer pH 1.7 for 5 s, followed by neutralization in Sample Diluent for 5 s; both steps were repeated twice. Subsequently sensors were loaded again with antibody for the next cycle of kinetics measurements.
The Y-axis was aligned to the last 10 s of the baseline, Interstep Correction alignment to dissociation and Savitzky-Golay filtering were applied.

B1: chIgG1-ROR2-A (antibody, V domains shown)
VH: QSVEESGGRLVTPGTPLTLTCTVSGFSLSSYSMSWVRQAPGKGLEWIGVIYVNSKTWYANWAKGRFTISKTSTTVDLKITSPTTEDTATYFCARGDAGYTTNSWLWGPGTLVTVSS
VL: AFELTQTPASVSEPVGGTVTIKCQASESIDNYCSWYQQKPGQPPKLLIYQAFKLASGVPSRFRGSGSGTQFTLTISDLESDDAATYYCQSYSGISTTAFGGGTEVVVK
notes: Rabbit-human chimeric antibody; also called ROR2 specific antibody A
B1 was tested, and the “RFU (total spot intensity)” value [1] was 0 RFU, the binding result [1] was “no binding (tested: RFU = 0)” and the Kd [2] was 1.6 nM. It also gave a koff [2] of 0.00095 s⁻¹ and a kon [2] of 610000 M⁻¹ s⁻¹.
